Reference: PMC3394726

Biological target: chymotrypsin (bovine)

scabies mite serpin SMSB3, wild type (from UniProt A0A131ZZL5 20-427) (natural protein)
stoichiometry of inhibition (SI) from residual chymotrypsin activity at a 2-120:1 molar excess of SMSB3: 12.9
